The text below walks through data of a protein production outcome set (Wang et al. 2014).
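Also: failed if final PepcDB status was selected cloned or expressed and not failed if soluble or beyond.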

A short description of the data set: label from the status in PepcDB records.
Take “MNTGMGLIWIAGASGLLAFLTSLLYFFRQDRKFLALSEKLELIAGVGLVFAIFLLAFYLLGVDTQYSYVFQHSSTDLAWHYRFSALWAGQEGSFLIWTGFIFVMLAITRFTGTGKVLRETEIFSIMRSVSLFVASVFLLLLALKNPFSMYYYTGTGVPDVTNWNLFAEPFVVSYGQGMNPLLRNPWMAIHPPLLFLGYAAFTLPFSAAIGGLVLKDSRWSELATGWMRVSWLFLTLGIGFGAFWAYEVLGWGAWYWTWDPVETSSLIPWLTATAYLHAKLRARQGEYGFLLPMLALVSFILVIFSTFVTRSGLWVSVHSWQDFTMEGMIIALFLVVLIGSSAVLLVRKYFSEE”: the protein production entry is recorded as “failed”. As for “MNTIRPVSDLRNNFADISKIVHQSQQPVFLTKNGYGDMVVMSMETFEDMKFESDIYSKLQEAEKQASLTGKRFSSKDVFEEIQKLISELEHHHHHH”, the entry is “not failed”; as for “MNTLSIYRFKQWLKEGESPLALTLFRIAKSIRHFELPTPRLLNKVLYGLHKTLCTQWQAFTHLIFYVPAFKGRLESYGKRTLLYGGLPFFSGPLTMRIGNDCRISGQTTFSGRTNSDNPTLEVGDNVDICWQTTIAVGNKVIIGNNVRIAGQGFLCGYPGHPIDPTERALGKPDLDSQVGDIILEQDVWLGSRVSIIGNVTVGEGTIVASGSVVTKSLPPFVLAAGNPAKVIKKLDVNASNTIKEEIHYEA”, “failed”; as for “MNTLSVLLSLFTVIVVQRVFKKLSISLLSGVIVMILSLKVRNILEIFFWTVSSDSFWSLIVTVFLIYLLSGMMEKSGDYSRFSEEMRTIFSKNVDSFVPALIGLMPMPGGALFTAPIVKNSLPEENSLKLAVKNYWFRHTIEFFWPIYPAVVLVSELSGIHPGKVSLTLFPVFAIAFFLGWFFFNGKQLPCLSKPRSFFNLFPLIPVLGTGVLILLFKVSGWFALLLSTSGYAVFRRRYLLKTLKQVFNKWDVFLVLFFVYIYKVVVEHSGVGEGIAAEFVRWNLSPWILLIFLPLVSGISTGITQAAVGISLPVLMEVFSSKYAVYTYMFAVGGVILSPVHLCVVLSAKFFEVEVFDILKKVFLPLVLTLILGALVLGVIL”, “failed”. As for “MNTSEHEREHDHVIEVTDLRRVYGGDFEAVRGITFSVERGELFALLGTNGAGKTSTVELLEGLAAPSGGRVRVLGHDPYEERAAVRPRTGVMLQEGGFPSELTVAETVRMWAGCTSGARPVGEALSLVGLERRPDVRVKQLSGGERRRLDLALALLGRPEVLFLDEPTTGLDAEGRQETWELVRELRDGGTTVLLTTHYLEEAEGLADRLAILHEGRIATAGTPAEVTAAQPSRISFDLPDGYFLGDLPPLADLGVSTHETTGRTVRLRTHELQRTATALLLWAQRAQVELRGLDVRSASLEEAFLRIAREAAGDRPGRPGRTDVSGTTASGKEAVALEHHHHHH”, the entry is “not failed”.

As for “MNTSSSFKALASPPLISTSRPTTKSFPNPRFTSRFSPKPITCMRDSLNLGSNPKAPSPFSLATVSVDAPLGTKTSDKLRILVSEFRSLTEPIDRVKRLLNYAATLAPLDESARISENRVTGCTTQVWLEIKMDEFGRMRFKADSDSEISKGFCSCLIWILDGAKPEEVMGVRSEDLSEMNVGVHGKEQSRVNTWHNVLMSMQKRTMTLVATDVAHQRGQRPPHQHDLLFKYVNGSYMESSKVHDYSISLLPLYYDFII”, the protein production result is reported as “failed”. As to “MNTTDRDASHTLLEQVNQALQDNTPLRIRGGNSKAFLGREVTGEPLDTRAHRGIVSYDPTELVITARAGTPLSEVLQALDAAGQMLPCEPPDIGAATLGGVVAAGLSGPRRPWSGSVRDFVLGTRLITGLGKHLRFGGEVMKNVAGYDVSRLLTGSFGCLGVLTEVSLKVLPKPRLCSSIALEMDSARALACLAEWGQQPMPISAASHDGRVLRLRLEGGEGSVAAAHERLGGELIDATYWQQLNEQRLPFFFDPGPLWRVCVPADTGVLDLPGEQLIDWAGAQRWLKSDASGDAIRAMTASVGGHATCYSQGRDDSPFHPLTTPLLRYHQALKTRLDPQGIFNPGRLYREL”, the protein production result is “failed”. As for “MNVAILLAAGKGERMSENVPKQFLEIEGRMLFEYPLSTFLKSEAIDGVVIVTRREWFEVVEKRVFHEKVLGIVEGGDTRSQSVRSALEFLEKFSPSYVLVHDSARPFLRKKHVSEVLRRARETGAATLALKNSDALVRVENDRIEYIPRKGVYRILTPQAFSYEILKKAHENGGEWADDTEPVQKLGVKIALVEGDPLCFKVTFKEDLELARIIAREWERIP”, the entry is “not failed”. For “MNVDILKQRAKAFDYVFDAIVVTDLQGFIIDWNKGSETLYGYSKEQAIGQPVNMLHVPGDTEHITSEVISAVENQGKWTGEIRMLHKDGHIGWIESMCVPIYGENYQMVGALGINRDITLEHHHHHH”, the protein production result is “not failed”.

Turning to “MNVEGMATGGIHMELHCPKCQHVLDQDNGHARCPSCGEFIEMKALCPDCHQPLQVLKACGAVDYFCQHGHGLISKKRVEFVLALEHHHHHH”, the protein production entry is reported as “failed”. As for “MNVKKNIALPAIMVGTFILEGVISLQFGNGLFNDKHLFIPHFLLVMLTIMTCFYKRNTTLVYAFILGLLFDIYYTGVMGIYFAIFPFTVYITDKFMKVLQNNIFLVGLITVFNIILTESLVYAFYYLIGSTTMTIPVFIDQRLWTTILFNLAFFLVIFFPFRLFLDRLVKSE”, the protein production entry was “failed”. As for “MNVLALDTSQRIRIGLRKGEDLFEISYTGEKKHAEILPVVVKKLLDELDLKVKDLDVVGVGIGPGGLTGLRVGIATVVGLVSPYDIPVAPLNSFEMTAKSCPADGVVLVARRARKGYHYCAVYLKDKGLNPLKEPSVVSDEELEEITKEFSPKIVLKDDLLISPAVLVEESERLFREKKTIHYYEIEPLYLQKSIAELNWEKKKRG”, the entry is “not failed”. As for “MNVLLVSVNREHAPYPVFPLGLACLAGPLRAAGHRLSVLDLCFAADPEEATRQALAEFSPDVVVLSLRNIDNVTYPGSRSYLSGVRDVVAICRERAAVVVGGSGFSLMPREVLAYLGADYGVVGEGEDVLPRLLARIAAGEGGDGLPGVVARENAGFLPPHPVQAIGTPLRGLFQVERYHREGGMANIQTKRGCPFSCIYCTYPLLEGERMRLRPVADIIAEIGDLVDVHGVSYLYFVDDIFNYPLEFALELCRAMSAARLPVAWSAFINPDFLPPQLLDAMLAAGCDALEFGTDSGSPVMLRNLRKSFGIEKVREASRLCREAGVDFAHYILFGGPGETPATIAESFALMDEVAPTAVIAMTGIRIFPGTAIYRQALADGLITPETDLLRPAFYIAPTIADTLCELVREEALKRTNWVVPGLEITANDAMLEALRHFAGPGPLWKMLKLLGRRRGSVPSPWSHSPS”, the entry is “failed”. As for “MNVPDMILYNGKITTLDPSQPEVSAIAITDGLITAVGGDELLNSATEKTKKIDLKRKRAIPGLEHHHHHH”, the protein production entry is recorded as “not failed”. As for “MNVRNNTKLITINALLLAIGVILHQITPILGLPMQPDFALTMLFIIIILNDNFKITMVSGTLMGIFTAMTTKFPGGQLPNVVDKIFTALIVFLFIALIKKSNILGRLSVEKRNNILIAIVLPLGTLVSGILFLGTAKIIVGLPASFSILFLTVVVPSIALNTVIGLVLYRIVEKSLRRASYSIRG”, the entry is “failed”.

Turning to “MNVTTTRFGEIAVEEAKIITLPDGMLGFSEKRFVLLTPQNITPFCWLQSVENPELAFVVVDTKECASDYAVKLTAEESEKLCVNDGDEVVLLAVVTMASDPFNITVNLQGPIALNPKRMLAKQIVLEGSRYTTKHPFFDQAARSKAPGKRNASGEVTAA”, the protein production result is “not failed”. In the case of “MNVWQVVGYKHSGKTTLMEKWVAAAVREGWRVGTVKHHGHGGEPARPEGVDSVRHERAGAVATAVEGDGLLQLHLRRPLWRLDDVLALYAPLRLDLVLVEGYKQERHPKVVLVRSEEDWASLQHLANIRAVIAWEPLEGPLAHPVFSLADDDEYIPWLMNEVRTRT”, the protein production result is “not failed”. As for “MNWAKFRETGSPEDTDMSSTPISSDTTAVSKVIDPNYVLMVADFFKAISPDESCNDFTSFDSFSVLFQNNTRALSIARGRVSCSVTVTPGISNFFKGLHGGAVASIAERVAMACVKTVVSEDKHLFIGELSMSYLSSAPISSELLVEGTVVRTGRNLSVVTVEFKIKETMKVTYLSRATFYHSPISKL”, the entry is “failed”; as for “MNWVTHKPTFEFDNFSPFIRANTAWLGHLEFAYDLVRFEKPEILVELGTHMGASFFSFCQGVKDGGLATKCFAVDTWTGDGHTGPYGEGVFHIVDKVVKTSYPNIGNLIKSTFDEAVDQFQDGTINLLHIDGYHTYEAVSHDYKTWLPKLADNGIVLFHDIEVKDRNFGVYKFWDEVKAKYPHFQFQHSYGLGVLFPKGCSDRFKEILKNKEEIQDMYKLEHHHHHH”, “not failed”; as for “MNYFATVARGLETLAAQELEQLGAHSVEPGFCGVAFEGDRTLLYRVNLWARLPFRILVDIHEFPCLDAKDLYRGIQTIDWQNYLTPDMTLAVNVTGKNAHLNHSHFTSLQVKNAIVDQQQEKLGERSNVELHEPDVRVNVHIERDFCTVKLDSSGNSLHRRGYRPAVGSAPLKESLAAALIQLSGWKQDQMFYDPLCGSGTLPLEASLKALNIAPGLFRESFGFENWLDFDLVLLEKLLQEAKDSQLDTLPAPIWGSDHDENVIEQAINNAQNCGVDNHVWFSQMELADVVAPADSGILLCNPPYGERLGRDSDLGAFYKLLGDVLKQRFKGWTAFVLSGNKELSQSIGLKSSKRIAVYNGALPCQLMKYELY”, “failed”. As for “MNYNSIPTEIIDTILAELKIGLTLVNNTGKIIYFNQLAGELLGWDNKLPENTILSCHKKENQPKVIEKLNQPAAMEWHKVIKTQNRFIENAYSPINIPDKFMGAMILTKDVTAREESLEKLKKNAETDALTGLYNRNLFHTVIQSYITESKPYGLIMLDISGLKYINDHFGHEEGDRILKEAAEAIRSSIRDTDFAFRFGGDEFLILTSYQEAVLKTIANRIRSKNKIPTENTPAVLNLSLGYATSLEEKNMEAVLSSADQRMYRDKQLFYLGDGKYFKQ”, the entry is “failed”.

As to “MNYSKLKSIPIYFSLLAISVSNVGCVQQDVEANLTSKTLSENLDSKALRHKNKEQDIESLLAQLTLEEKISLVHANTKFANAAVERLGIHSMEMSDGPHGVRRQISRDSWKPAGWDDDQATYLPPLTAVAASWDPQMATLHGNVLGSEARHRNKDVILGPGVNLARLPLYGRNFEYLGEDPFLAAKLVVPEIIAIQANDVAATVKHFALNTQELNRHGVDATPDERTLREVYLPAFEAAVKEGNTYAMMGSYNNVYGTNANQNKHLIMDILKGEWGYQGLLMTDWDVDINTYDAAMNGLDLEMGTRAKSYDDYFLAKPLLKMIQSGKVPVAVLDDKVRRILRVQLSIGMMDKQRFSGQRNTQEHRDFSRQIATQGVVLLKNESVASANHTNTVLPLDKNKVKNILVLGPNADKKHGSGGGSSQVKSLWEITPLQGLKDKLGDNVEIQFMRARSQSGVQPIAEDFVKTNNRGTGTPAWRLIEYKTKDRNKKAAHYGWLPESSYNSPLGDVIQHINLKADIMPLASGEHVLKLGGKGNVNLVINGKEVINTTLSGDKTYQHKLTLKQGKKYVFTLGYDGADNVVLGWNAPGSPFSTKDEYLAAAKNADAVIYYAGLSHADDRESKDRSNMVLPNNQDDIISDLIAVNSTTVVFVIGGSAVEMPWAEQANAIVWGWYGGMEAGHSYADILFGDVNPSGKMPITLPKKLTDTAPIVLNDYNEKTSTYPEGVFIGYRWFEQQNIEPLFPFGHGLSYTHFSFGDISLNKDVISAGETITASVKITNTGKVAGAEVVQLYLHDEESSVPRPVKELKGFEKVFLQPGESQTVMLTLTQRDLSFWDVNTKNWLAEQGQFSVHIGSSVNDIKTSTSFSYQ”, the protein production result is reported as “failed”.
